For two substances, stoichiometry N results are on record in PMC7992989.

The target of test [1] is CP12 from Thalassiosira pseudonana, recombinant, after His tag removal with thrombin (Thalassiosira pseudonana). Description: native MS; native ESI-MS, 5 µM CP12 without histidine tag, 200 mM ammonium acetate pH 8.0, source temperature 20 °C; dimer to monomers.
In test [2] the target is recombinant histidine tagged CP12 from Thalassiosira pseudonana (Thalassiosira pseudonana). Description: SEC-SAXS; 50 µL of His-tagged CP12 at 11 mg/mL on Agilent Bio-SEC-3 300 Å, 15 °C, 30 mM Tris, 50 mM NaCl, 2 mM EDTA, 1 mM TCEP, pH 7.5; mass from the forward scattering intensity.

For the substance “CP12 from Thalassiosira pseudonana, recombinant, after His tag removal with thrombin (natural protein)”, in test [1], the stoichiometry N worked out at 2.
Consider “recombinant histidine tagged CP12 from Thalassiosira pseudonana (natural protein)”, for which the stoichiometry N in test [2] amounted to 2.
